Positions count from the first letter of the chain named.
What was measured:
重组SARS-CoV2核蛋白(NP) [1] = biological target: T1, 重组SARS-CoV2核蛋白(NP) (SARS-CoV-2, UniProt P0DTC9 1-419); experiment: double-antibody sandwich lateral-flow strip, paired with JS08
重组SARS-CoV2核蛋白(NP) [2] = biological target: T1, 重组SARS-CoV2核蛋白(NP)
重组SARS-CoV2核蛋白(NP) [3] = biological target: 重组SARS-CoV2核蛋白(NP) (SARS-CoV-2, UniProt P0DTC9 1-419); remark: listed apart in the source

B1: JS01 (antibody, V domains shown)
VH: QVQLVESGAEVKKPGSSVKVSCKASGGTFSSYAISWVRQAPGQGLEWMGGIIPIFGTANYAQKFQGRVTITADESTSTAYMELSSLRSEDTAVYYCARGGWRSSGYHDYSYYGMDVWGQGTTVTVSS
VL: not shown
重组SARS-CoV2核蛋白(NP) [1]
  检测限 (detection limit for NP): < 2 ng/mL
重组SARS-CoV2核蛋白(NP) [2]
  Kd: 0.22 nM
  koff: 0.000479 s⁻¹
  kon: 2.18e+06 M⁻¹ s⁻¹

B2: JS05 (antibody, V domains shown)
VH: EVQLLESGGGVVQPGRSLRLSCAASGFIFSSYGMHWVRQAPGKGLEWVAVIWYDGSNKYYADSVKGRFTISRDNSKNTLYLQMNSLRAEDTAVYYCARDLRGPTGWTFDYWGQGTLVTVSS
VL: ENVLTQSPATLSLSPGERATLSCRASQSVSNYLAWYQQRPGQAPRLLIYDSSNRATGIPARFSGSGSGTDFTLTISSLEPEDFAVYYCQHRSNWKITFGQGTRLEIK
重组SARS-CoV2核蛋白(NP) [1]
  检测限 (detection limit for NP): < 2 ng/mL
重组SARS-CoV2核蛋白(NP) [2]
  Kd: 0.409 nM
  koff: 0.000243 s⁻¹
  kon: 594000 M⁻¹ s⁻¹

B3: JS06 (antibody, V domains shown)
VH: EVQLLESGGGVVQPGRSLRLSCAASGFTFSSYGMHWVRQAPGKGLEWVAVIWYDGSNKYYADSVKGRFTISRDNSKNTLYLQMNSLRAEDTAVYYCARAAYGPYYGMDVWGQGTTVTVSS
VL: not shown
重组SARS-CoV2核蛋白(NP) [3]
  Kd: 16.1 nM
  koff: 0.00258 s⁻¹
  kon: 161000 M⁻¹ s⁻¹

B4: JS08 (antibody, V domains shown)
VH: QVQLVQSGPGLVKPSETLSLTCTVSGGSISSYYWSWIRQPPGKGLEWIGNIYYSGSTDYNPSLKSRVTISVDTSKNQFSLRLSSVTAADTAVYYCAREQFSGGDYEGFDFWGQGTLVTVSS
VL: QSVLTQEPSVSGAPGQRVTISCTGSSSNIGAGYDVHWYQQLPGTAPKLLIYGNSNRPSGVPDRFSGSKSGTSASLAITGLQAEDEADYYCQSYDSSLSGWVFGGGTKLTVL
重组SARS-CoV2核蛋白(NP) [3]
  Kd: 0.19 nM
  koff: 5.77e-06 s⁻¹
  kon: 30300 M⁻¹ s⁻¹

B5: JS11 (antibody, V domains shown)
VH: EVQLLESGGGVVQPGRSLRLSCAASGFTFSSYGMHWVRQAPGKGLEWVAVIWYDGSNKYYADSVKGRFTISRDNSKNTLYLQMNSLRAEDTAVYYCVGPLMVRGVIIPWGQGTLVTVSS
VL: not shown
重组SARS-CoV2核蛋白(NP) [2]
  Kd: 0.292 nM
  koff: 5.62e-05 s⁻¹
  kon: 193000 M⁻¹ s⁻¹

B6: JS12 (antibody, V domains shown)
VH: EVQLLESGGGVVQPGRSLRLSCAASGFTFSSYGMHWVRQAPGKGLEWVAVIWYDGSNKYYADSVKGRFTISRDNSKNTLYLQMNSLRAEDTAVYYCARDGSGSYYWGSLDYWGQGTLVTVSS
VL: B2 VL with N31S, R39K, D50G, S51A, H90Q, K95P, I96W, R103K, L104V
重组SARS-CoV2核蛋白(NP) [1]
  检测限 (detection limit for NP): < 2 ng/mL
重组SARS-CoV2核蛋白(NP) [2]
  Kd: 0.15 nM
  koff: 7.33e-05 s⁻¹
  kon: 488000 M⁻¹ s⁻¹

B7: JS13 (antibody, V domains shown)
VH: QVQLVQSGAEVKKPGSSVKVSCKASGGTFSSYAISWVRQAPGQGLEWMGGIIPIFGTANYAQKFQGRVTITADESTSTAYMELSSLRSEDTAVYYCARGGWVICSSTSCYTKYSYYGMDVWGQGTTVTVSS
VL: QSVLTQPPSVSAAPGQKVTISCSGSSSNIGNNYVSWYQQLPGTAPKLLIYDNNKRPSGIPDRFSGSKSGTSATLGITGLQTGDEADYYCGTWDSSLIARLFGGGTKLTVL
重组SARS-CoV2核蛋白(NP) [1]
  检测限 (detection limit for NP): < 2 ng/mL
重组SARS-CoV2核蛋白(NP) [2]
  Kd: 0.12 nM
  koff: 9.66e-05 s⁻¹
  kon: 805000 M⁻¹ s⁻¹

B8: JS14 (antibody, V domains shown)
VH: B6 VH
VL: not shown
重组SARS-CoV2核蛋白(NP) [1]
  检测限 (detection limit for NP): < 2 ng/mL
重组SARS-CoV2核蛋白(NP) [2]
  Kd: 0.178 nM
  koff: 0.000221 s⁻¹
  kon: 1.24e+06 M⁻¹ s⁻¹

— patent publication CN113004395A (JIANGSU PROVINCIAL CENTER FOR DISEASE CONTROL AND …, dated 2021)
